Experimental data: paper PMC5855951

Biological target: METTL3;METTL14 (human?;human?, UniProt Q86U44;Q9HCE5 1-580;1-456, |)
Assay: filter binding

Sequence of METTL3;METTL14 (Q86U44 whole entry, chain 1 of 2): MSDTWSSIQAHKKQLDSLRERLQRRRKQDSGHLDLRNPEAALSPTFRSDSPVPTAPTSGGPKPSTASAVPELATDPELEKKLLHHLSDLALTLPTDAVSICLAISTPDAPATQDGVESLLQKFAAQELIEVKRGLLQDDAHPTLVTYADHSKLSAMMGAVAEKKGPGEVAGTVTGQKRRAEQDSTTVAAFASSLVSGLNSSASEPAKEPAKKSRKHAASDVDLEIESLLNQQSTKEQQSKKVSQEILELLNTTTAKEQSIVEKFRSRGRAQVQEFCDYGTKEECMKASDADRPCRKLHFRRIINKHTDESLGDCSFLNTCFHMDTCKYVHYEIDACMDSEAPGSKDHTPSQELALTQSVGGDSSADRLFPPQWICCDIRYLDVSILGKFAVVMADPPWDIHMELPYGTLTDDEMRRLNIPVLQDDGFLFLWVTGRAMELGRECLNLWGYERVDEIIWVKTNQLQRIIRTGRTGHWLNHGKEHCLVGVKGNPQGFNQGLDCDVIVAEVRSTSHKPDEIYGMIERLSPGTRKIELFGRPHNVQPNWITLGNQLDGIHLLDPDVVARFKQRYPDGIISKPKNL
Sequence of METTL3;METTL14 (Q9HCE5 whole entry, chain 2 of 2): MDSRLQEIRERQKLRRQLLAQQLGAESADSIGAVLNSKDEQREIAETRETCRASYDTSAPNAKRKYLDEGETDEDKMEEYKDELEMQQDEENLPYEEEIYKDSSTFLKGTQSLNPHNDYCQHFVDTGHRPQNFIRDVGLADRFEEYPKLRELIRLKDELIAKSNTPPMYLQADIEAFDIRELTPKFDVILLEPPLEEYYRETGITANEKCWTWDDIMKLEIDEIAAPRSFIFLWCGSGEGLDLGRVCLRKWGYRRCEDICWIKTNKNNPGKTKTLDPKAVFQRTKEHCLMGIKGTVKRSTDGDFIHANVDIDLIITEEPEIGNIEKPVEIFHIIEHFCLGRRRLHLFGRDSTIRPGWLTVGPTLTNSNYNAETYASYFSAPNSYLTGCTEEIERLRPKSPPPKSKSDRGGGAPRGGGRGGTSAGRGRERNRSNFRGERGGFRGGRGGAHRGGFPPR

B1: 4x GGACU RNA probe (ssRNA)
RNA: GGACUGGACUGGACUGGACU
- binding result: binds
